In patent publication US20250376667A1:

Experiments:
[1] = tested on: control peptide comprising PCL1 (PCL1 Pep)
[2] = tested on: KL958 (C521S)-PCL1-HSA
[3] = tested on: KL958 (C521S C370S)-PCL1-HSA

Chain of control peptide comprising PCL1 (PCL1 Pep) (chain, as listed by the source): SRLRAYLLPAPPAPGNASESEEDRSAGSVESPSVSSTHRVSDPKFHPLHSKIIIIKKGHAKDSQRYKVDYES

| Molecule | protease cleavage of the peptide in vitro [1] | protease cleavage in reaction buffer, immunoblot with anti-KL antibodies [2] | protease cleavage in reaction buffer, immunoblot with anti-KL antibodies [3] |
| --- | --- | --- | --- |
| kallikrein 2 (KLK2) | The ability of two proteases, kallikrein 2 (KLK2) and matrix metalloproteinase 7 (MMP7), to cleave the protease cleavable linker PCL1 was confirmed using a control peptide comprising PCL1 (PCL1 Pep) |  |  |
| matrix metalloproteinase 7 (MMP7) (enzyme, UniProt P09237 95-267, looked up, species assumed) Matrilysin: YSLFPNSPKWTSKVVTYRIVSYTRDLPHITVDRLVSKALNMWGKEIPLHFRKVVWGTADIMIGFARGAHGDSYPFDGPGNTLAHAFAPGTGLGGDAHFDEDERWTDGSSLGINFLYAATHELGHSLGMGHSSDPNAVMYPTYGNGDPQNFKLSQDDIKGIQKLYGKRSNSRKK | The ability of two proteases, kallikrein 2 (KLK2) and matrix metalloproteinase 7 (MMP7), to cleave the protease cleavable linker PCL1 was confirmed using a control peptide comprising PCL1 (PCL1 Pep) | PCL1-containing KL polypeptides displayed cleavage of the linker, resulting in a shorter KL polypeptide in the presence of MMP7 | PCL1-containing KL polypeptides displayed cleavage of the linker, resulting in a shorter KL polypeptide in the presence of MMP7 |
